Experiments:
Test in all cases: pulldown
Settings in all cases: mass spectrometry
RS3 (Homo sapiens) = RS3 (Homo sapiens) (UniProt P23396)
hnRNPA1 (Homo sapiens) = hnRNPA1 (Homo sapiens) (UniProt P09651)
RS4X (Homo sapiens) = RS4X (Homo sapiens) (UniProt P62701)
[1] = target: HNRPC (hnRNP C) (Homo sapiens) (UniProt P07910)
[2] = target: NUCL (nucleolin) (Homo sapiens) (UniProt P19338)
hnRNPA2B1 (Homo sapiens) = hnRNPA2B1 (Homo sapiens) (UniProt P22626)
[3] = target: HNRPU (hnRNP U) (Homo sapiens) (UniProt Q00839)
HNRPU (hnRNP U) (Homo sapiens), sequence (Q00839 2-825): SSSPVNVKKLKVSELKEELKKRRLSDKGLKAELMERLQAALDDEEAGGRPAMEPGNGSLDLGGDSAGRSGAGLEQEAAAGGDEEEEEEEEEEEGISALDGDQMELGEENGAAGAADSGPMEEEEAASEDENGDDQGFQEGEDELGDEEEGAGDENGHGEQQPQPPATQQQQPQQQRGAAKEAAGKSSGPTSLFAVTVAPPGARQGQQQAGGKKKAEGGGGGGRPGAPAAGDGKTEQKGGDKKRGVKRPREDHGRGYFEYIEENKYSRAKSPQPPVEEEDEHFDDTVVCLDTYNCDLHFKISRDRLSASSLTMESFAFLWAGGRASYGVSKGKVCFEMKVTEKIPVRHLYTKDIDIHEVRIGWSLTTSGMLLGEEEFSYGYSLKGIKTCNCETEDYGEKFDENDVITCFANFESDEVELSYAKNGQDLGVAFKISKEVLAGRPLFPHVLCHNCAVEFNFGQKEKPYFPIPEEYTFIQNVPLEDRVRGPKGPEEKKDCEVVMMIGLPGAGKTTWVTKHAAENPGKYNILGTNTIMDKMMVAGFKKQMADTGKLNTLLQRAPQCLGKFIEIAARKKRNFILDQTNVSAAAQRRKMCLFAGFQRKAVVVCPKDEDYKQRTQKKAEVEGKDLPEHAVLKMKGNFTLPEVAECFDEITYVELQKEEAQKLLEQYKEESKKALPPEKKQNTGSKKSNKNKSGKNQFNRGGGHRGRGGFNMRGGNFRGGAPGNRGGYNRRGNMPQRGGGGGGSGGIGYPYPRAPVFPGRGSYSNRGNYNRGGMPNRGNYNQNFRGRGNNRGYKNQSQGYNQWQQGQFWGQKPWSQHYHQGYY

NUCL (nucleolin) (Homo sapiens), sequence (P19338 2-710): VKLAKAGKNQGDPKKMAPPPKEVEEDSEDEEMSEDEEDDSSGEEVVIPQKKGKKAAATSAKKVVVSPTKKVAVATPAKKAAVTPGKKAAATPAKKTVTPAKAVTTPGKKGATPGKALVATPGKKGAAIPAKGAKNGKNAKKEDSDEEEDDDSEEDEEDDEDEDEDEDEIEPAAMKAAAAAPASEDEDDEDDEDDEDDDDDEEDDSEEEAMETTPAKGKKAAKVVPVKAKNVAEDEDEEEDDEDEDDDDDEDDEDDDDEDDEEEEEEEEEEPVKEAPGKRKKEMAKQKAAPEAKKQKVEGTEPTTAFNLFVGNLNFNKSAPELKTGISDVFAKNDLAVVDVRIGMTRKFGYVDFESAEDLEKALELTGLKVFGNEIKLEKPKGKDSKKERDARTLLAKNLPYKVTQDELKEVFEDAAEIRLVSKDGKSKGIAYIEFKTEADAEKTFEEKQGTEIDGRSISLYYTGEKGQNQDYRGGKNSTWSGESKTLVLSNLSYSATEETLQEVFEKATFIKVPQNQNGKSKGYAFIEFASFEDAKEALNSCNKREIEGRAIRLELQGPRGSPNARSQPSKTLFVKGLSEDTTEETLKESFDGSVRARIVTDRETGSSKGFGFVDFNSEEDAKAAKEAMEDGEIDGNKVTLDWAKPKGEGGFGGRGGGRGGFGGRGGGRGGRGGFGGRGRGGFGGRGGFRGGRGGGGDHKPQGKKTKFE
HNRPC (hnRNP C) (Homo sapiens), sequence (P07910 2-306): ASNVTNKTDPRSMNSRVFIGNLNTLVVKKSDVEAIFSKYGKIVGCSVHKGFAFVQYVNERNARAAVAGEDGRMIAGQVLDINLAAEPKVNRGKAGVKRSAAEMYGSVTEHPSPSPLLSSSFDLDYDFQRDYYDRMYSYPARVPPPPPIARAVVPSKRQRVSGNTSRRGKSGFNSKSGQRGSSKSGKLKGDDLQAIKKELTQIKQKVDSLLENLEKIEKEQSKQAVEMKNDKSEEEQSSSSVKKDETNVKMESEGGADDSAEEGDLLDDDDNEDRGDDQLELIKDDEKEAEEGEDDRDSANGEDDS
hnRNPA1 (Homo sapiens), sequence (P09651 2-372): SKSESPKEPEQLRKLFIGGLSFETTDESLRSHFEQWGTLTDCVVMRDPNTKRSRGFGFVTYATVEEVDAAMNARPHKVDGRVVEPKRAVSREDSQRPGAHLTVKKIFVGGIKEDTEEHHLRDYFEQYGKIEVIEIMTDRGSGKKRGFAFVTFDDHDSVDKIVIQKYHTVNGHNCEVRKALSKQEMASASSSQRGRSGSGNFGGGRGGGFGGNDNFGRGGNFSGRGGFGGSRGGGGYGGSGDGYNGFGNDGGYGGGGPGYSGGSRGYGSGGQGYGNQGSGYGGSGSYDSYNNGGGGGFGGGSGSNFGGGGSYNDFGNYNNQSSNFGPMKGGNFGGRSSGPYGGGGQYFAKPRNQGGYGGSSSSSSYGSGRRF
hnRNPA2B1 (Homo sapiens), sequence (P22626 whole entry): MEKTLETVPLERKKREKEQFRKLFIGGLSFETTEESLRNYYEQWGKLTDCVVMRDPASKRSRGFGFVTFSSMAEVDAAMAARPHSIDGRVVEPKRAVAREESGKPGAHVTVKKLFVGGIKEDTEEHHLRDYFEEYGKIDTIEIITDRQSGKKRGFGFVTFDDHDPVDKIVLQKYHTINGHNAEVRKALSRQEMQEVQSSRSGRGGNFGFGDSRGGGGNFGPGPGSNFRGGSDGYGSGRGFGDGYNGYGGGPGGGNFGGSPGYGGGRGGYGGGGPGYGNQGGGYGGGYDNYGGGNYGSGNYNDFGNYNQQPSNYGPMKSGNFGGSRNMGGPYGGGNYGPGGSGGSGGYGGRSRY

miR-198
binding (RS3 (Homo sapiens)): 3 peptides
binding (hnRNPA1 (Homo sapiens)): 2 peptides
binding (RS4X (Homo sapiens)): 3 peptides
binding [1]: 1 peptides
binding [2]: 9 peptides
binding (hnRNPA2B1 (Homo sapiens); streptavidin bead pulldown): 4 peptides
binding [3]: 3 peptides

poly-A
binding (RS3 (Homo sapiens)): 0 peptides
binding (hnRNPA1 (Homo sapiens)): 0 peptides
binding (RS4X (Homo sapiens)): 0 peptides
binding [1]: 0 peptides
binding ([2]; non-specific): 8 peptides
binding (hnRNPA2B1 (Homo sapiens)): 0 peptides
binding [3]: 0 peptides

From patent US20160130577
